The target of the experiment is complement factor C1q. As to the kind of experiment: FACS, C1q on antibody-coated BT-474 cells, 10 ug/ml each.
Sequence of complement factor C1q (P02745 23-245, chain 1 of 3): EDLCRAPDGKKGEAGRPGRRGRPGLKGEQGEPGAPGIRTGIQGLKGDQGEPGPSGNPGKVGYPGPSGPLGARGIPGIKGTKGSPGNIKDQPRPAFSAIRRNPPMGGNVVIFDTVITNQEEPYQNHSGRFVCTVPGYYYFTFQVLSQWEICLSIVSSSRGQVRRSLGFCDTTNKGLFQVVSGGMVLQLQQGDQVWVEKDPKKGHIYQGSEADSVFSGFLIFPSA
Sequence of complement factor C1q (P02746 28-253, chain 2 of 3, further chain): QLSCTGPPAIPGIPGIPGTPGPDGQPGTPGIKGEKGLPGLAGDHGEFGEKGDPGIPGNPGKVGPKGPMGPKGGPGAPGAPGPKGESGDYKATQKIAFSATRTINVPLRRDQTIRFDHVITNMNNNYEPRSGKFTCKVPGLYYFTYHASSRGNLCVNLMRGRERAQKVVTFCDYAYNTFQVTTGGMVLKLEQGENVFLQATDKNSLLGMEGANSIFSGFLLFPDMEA
Sequence of complement factor C1q (P02747 29-245, chain 3 of 3, further chain): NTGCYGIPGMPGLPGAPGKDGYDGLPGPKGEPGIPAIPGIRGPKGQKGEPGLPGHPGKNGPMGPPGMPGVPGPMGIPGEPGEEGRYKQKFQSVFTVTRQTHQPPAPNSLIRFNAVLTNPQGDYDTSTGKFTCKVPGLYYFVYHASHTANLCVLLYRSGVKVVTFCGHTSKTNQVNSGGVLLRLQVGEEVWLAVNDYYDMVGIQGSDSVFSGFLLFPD

The substance “combination of trastuzumab and pertuzumab” gave a PE-signal (geomean) of 2160.
